Positions count from the first letter of the chain named. Names and notes keep the numbering of the source.
T1: TNFR1 (Homo sapiens, UniProt P19438)
T1 chain: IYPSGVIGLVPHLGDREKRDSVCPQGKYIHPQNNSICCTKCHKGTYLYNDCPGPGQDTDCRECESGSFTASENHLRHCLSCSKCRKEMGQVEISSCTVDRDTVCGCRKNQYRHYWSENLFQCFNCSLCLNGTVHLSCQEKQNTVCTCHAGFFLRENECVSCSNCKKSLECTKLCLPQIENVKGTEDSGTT

B1: S59A (designed binder)
chain: SMEEEVEKAAKEYEKKKKEAIEKHLEKLKAKDKEAAERFLKELEEAAKEYAKDEAKTMAEEEAKRRAKKYKEKVLLSELSEEEQKEIKEAEEKLVRTILKYVEEAAK
B2: K11I (designed binder)
chain: B1 chain with K11I, A59S
B3: E86T (designed binder)
chain: B1 chain with A59S, E86T
B4: E81P (designed binder)
chain: B1 chain with A59S, E81P
B5: L79N (designed binder)
chain: B1 chain with A59S, L79N
B6: K29C (designed binder)
chain: B1 chain with K29C, A59S
B7: K93H (designed binder)
chain: B1 chain with A59S, K93H
B8: A20V (designed binder)
chain: B1 chain with A20V, A59S
B9: R38L (designed binder)
chain: B1 chain with R38L, A59S
B10: E83C (designed binder)
chain: B1 chain with A59S, E83C
B11: L25G (designed binder)
chain: B1 chain with L25G, A59S
B12: K71S (designed binder)
chain: B1 chain with A59S, K71S
B13: E14V (designed binder)
chain: B1 chain with E14V, A59S
B14: F39Q (designed binder)
chain: B1 chain with F39Q, A59S
B15: E82A (designed binder)
chain: B1 chain with A59S, E82A
B16: K48C (designed binder)
chain: B1 chain with K48C, A59S
B17: S1M (designed binder)
chain: B1 chain with S1M, A59S
B18: S80H (designed binder)
chain: B1 chain with A59S, S80H
B19: I87N (designed binder)
chain: B1 chain with A59S, I87N
B20: E91F (designed binder)
chain: B1 chain with A59S, E91F
B21: Y50N (designed binder)
chain: B1 chain with Y50N, A59S
B22: K41S (designed binder)
chain: B1 chain with K41S, A59S
B23: V102W (designed binder)
chain: B1 chain with A59S, V102W
B24: K17P (designed binder)
chain: B1 chain with K17P, A59S
B25: K11T (designed binder)
chain: B1 chain with K11T, A59S
B26: I87Q (designed binder)
chain: B1 chain with A59S, I87Q
B27: E12Q (designed binder)
chain: B1 chain with E12Q, A59S
B28: E3T (designed binder)
chain: B1 chain with E3T, A59S
B29: L43W (designed binder)
chain: B1 chain with L43W, A59S
B30: L43I (designed binder)
chain: B1 chain with L43I, A59S
B31: K71G (designed binder)
chain: B1 chain with A59S, K71G
B32: E7Q (designed binder)
chain: B1 chain with E7Q, A59S
B33: K31F (designed binder)
chain: B1 chain with K31F, A59S
B34: E89D (designed binder)
chain: B1 chain with A59S, E89D
B35: E22G (designed binder)
chain: B1 chain with E22G, A59S
B36: E26H (designed binder)
chain: B1 chain with E26H, A59S
B37: A105R (designed binder)
chain: B1 chain with A59S, A105R
B38: L75M (designed binder)
chain: B1 chain with A59S, L75M
B39: A90V (designed binder)
chain: B1 chain with A59S, A90V
B40: A90L (designed binder)
chain: B1 chain with A59S, A90L
B41: D32F (designed binder)
chain: B1 chain with D32F, A59S
B42: I21F (designed binder)
chain: B1 chain with I21F, A59S
B43: K23A (designed binder)
chain: B1 chain with K23A, A59S
B44: V102P (designed binder)
chain: B1 chain with A59S, V102P
B45: K100L (designed binder)
chain: B1 chain with A59S, K100L
B46: E3Q (designed binder)
chain: B1 chain with E3Q, A59S
B47: E44D (designed binder)
chain: B1 chain with E44D, A59S
B48: E7I (designed binder)
chain: B1 chain with E7I, A59S
B49: A63L (designed binder)
chain: B1 chain with A59S, A63L
B50: Y101R (designed binder)
chain: B1 chain with A59S, Y101R
B51: E12K (designed binder)
chain: B1 chain with E12K, A59S
B52: D53L (designed binder)
chain: B1 chain with D53L, A59S
B53: E86V (designed binder)
chain: B1 chain with A59S, E86V
B54: K17I (designed binder)
chain: B1 chain with K17I, A59S
B55: E45W (designed binder)
chain: B1 chain with E45W, A59S

Target: T1, TNFR1
Assay: yeast display SC50

Binder | apparent Kd (screen) [nM]
B1 | 0.593
B2 | 0.539
B3 | 0.956
B4 | 0.49
B5 | 12.5
B6 | 1.4
B7 | 0.869
B8 | 2.73
B9 | 1.16
B10 | 0.446
B11 | 1.05
B12 | 0.869
B13 | 11.4
B14 | 5.84
B15 | 0.593
B16 | 0.49
B17 | 2.25
B18 | 0.956
B19 | 12.5
B20 | 12.5
B21 | 1.54
B22 | 0.869
B23 | 1.4
B24 | 22.2
B25 | 0.446
B26 | 3
B27 | 0.956
B28 | 1.4

Binder | apparent Kd (screen) [nM]
B29 | 2.73
B30 | 1.4
B31 | 5.31
B32 | 4.39
B33 | 0.446
B34 | 0.653
B35 | 1.05
B36 | 0.539
B37 | 2.73
B38 | 0.49
B39 | 1.27
B40 | 0.446
B41 | 6.43
B42 | 0.49
B43 | 0.446
B44 | 0.49
B45 | 1.69
B46 | 2.25
B47 | 0.869
B48 | 26.9
B49 | 9.41
B50 | 0.446
B51 | 0.446
B52 | 13.8
B53 | 1.05
B54 | 0.956
B55 | 1.27

From article PMC12416549 (2024)
